Assay results reported in US20180105596A1 (ELSALYS BIOTECH, published 2018).
Changes are numbered by the printed parent chain. Values belong to the binder of their own block, whether it stands above or below them.

Legend:
[1] = target: T1, recombinant His-Strep tagged human Tyro3 extracellular domain (human, UniProt Q06418 41-429); assay: BLI (Octet K2), 1:1 global fit; analyte concentration of this kobs not given
T1 construct: also called hTyro3 ECD; full Tyro3 ECD
T1 sequence: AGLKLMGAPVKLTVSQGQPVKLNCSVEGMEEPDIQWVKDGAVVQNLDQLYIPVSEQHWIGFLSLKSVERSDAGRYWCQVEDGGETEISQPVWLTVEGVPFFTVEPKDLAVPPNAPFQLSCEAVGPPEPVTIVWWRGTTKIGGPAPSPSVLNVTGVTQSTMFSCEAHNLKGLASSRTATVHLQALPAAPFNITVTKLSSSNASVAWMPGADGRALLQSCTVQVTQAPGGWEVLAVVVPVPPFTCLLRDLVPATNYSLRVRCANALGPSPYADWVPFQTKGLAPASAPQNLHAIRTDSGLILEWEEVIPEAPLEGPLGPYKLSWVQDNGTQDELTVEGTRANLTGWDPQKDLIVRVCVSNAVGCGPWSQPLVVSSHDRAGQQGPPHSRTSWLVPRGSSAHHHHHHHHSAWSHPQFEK
Procedure: (§1) Affinity determinations were performed using biolayer interferometry on an Octet K2 instrument (Pall/ForteBio) equipped with anti-Human Kinetics (AHC) disposable fiber-optic biosensor tips. All experiments were conducted at 30° C. in the recommended Fortebio running buffer (PBS with 0.1% (w/v) bovine serum albumin (BSA) and 0.02% (v/v) Tween_20). This buffer was also used for dilution of ligand (here the antibody) and of the analyte (here the extra cellular domain of human Tyro3 protein). Samples in a 96-well microplates (No. Black polypropylene low binding plates, Greiner Bio-One, Frickenhausen, Germany) were agitated at 1000 rpm. […] Between measurements, the anti-human Tyro3 biosensor surfaces were regenerated by exposing them to 3 cycles of 5 sec in 10 mM glycine, pH 1.5, followed by 5 sec in PBS. Association phase was measured for 300 seconds, dissociation phase depending on the interaction for 300 seconds depending on dissociation step. All measurements were corrected for baseline drift using the double reference substraction, that is to say by subtracting a control sensor without ligand exposed to each concentration of the extra cellular domain of human Tyro3 protein and a reference well with ligand submitted to running buffer only. Affinity, association (kon) and dissociation rate constants (koff) for each antibody were calculated applying a 1:1 interaction model fitting global, Rmax linked by sensor) on the ForteBio data analysis software 9.0.

[2] = target: T1, recombinant His-Strep tagged human …; assay: BLI (Octet K2), IgG on AHC tips, hTyro3 ECD analyte, 1:1 global fit; KD Error 5,96E-10
Procedure: as §1, with “All measurements were corrected for baseline drift using the double reference substraction, that is to say by subtracting a control sensor without ligand exposed to each concentration of the extra cellular domain of human Tyro3 protein and a reference well with ligand submitted to running buffer only.” left out

[3] = target: T1, recombinant His-Strep tagged human …; assay: BLI (Octet K2), IgG on AHC tips, hTyro3 ECD analyte, 1:1 global fit; kon Error 1,34E+02
Procedure: as §1, with “All measurements were corrected for baseline drift using the double reference substraction, that is to say by subtracting a control sensor without ligand exposed to each concentration of the extra cellular domain of human Tyro3 protein and a reference well with ligand submitted to running buffer only.” left out

[4] = target: T1, recombinant His-Strep tagged human …; assay: BLI (Octet K2), IgG on AHC tips, hTyro3 ECD analyte, 1:1 global fit; kdis(1/s); kdis Error 1,42E-05
Procedure: as §1, with “All measurements were corrected for baseline drift using the double reference substraction, that is to say by subtracting a control sensor without ligand exposed to each concentration of the extra cellular domain of human Tyro3 protein and a reference well with ligand submitted to running buffer only.” left out

[5] = target: T1, recombinant His-Strep tagged human …; assay: sandwich ELISA, Strep-tagged hTyro3 ECD captured on StrepMAB plate, IgG 3-fold from 3 µg/mL, anti-human IgG1-HRP
Procedure: (§2) A double sandwich ELISA was developed. This assay consisted in measuring the binding of the anti-Tyro3 antibodies to be tested on immobilized strep-tagged entire human Tyro3 ECD captured directly on ELISA plate pre-coated with an anti-strep mAb (StrepMAB-Immo coated microplates from IBA biotech). Briefly, the 96 wells of StrepMAB-Immo coated microplate were washed three times with 300 μL of the PBS Tween 0.2% (referred as ELISA washing solution). The capture of an excess of purified strep tagged hTyro3 ECD protein was achieved by a one hour incubation at room temperature. In these experiments, 3 μg of purified protein diluted in PBS, BSA 1% (referred as ELISA diluent solution) were immobilized per well. The wells were washed three times with 300 μL of the washing solution. The non-specific binding sites on the well surface were blocked during 60 min at room temperature with 200 μL/well of blocking solution (PBS, BSA 3%). The wells were washed five times with 300 μL of the washing solution. Then, 100 μl (in duplicates) of the different concentrations of anti-Tyro3 antibodies to be tested diluted in ELISA diluent solution, were added per well and allowed to incubate during 1 hour at room temperature. An Irrelevant control IgG2656 was also added in this experiment. For anti-Tyro3 antibodies in the ScFv format, experiments were performed with 6 concentrations in duplicates (FIG. 3A). For anti-Tyro3 antibodies in the IgG format, experiments were performed with 9 concentrations in duplicates (FIG. 3B). […] For IgGs experiments, starting concentration for first dilution was 3 μg/ml and then dilutions of 3 fold in the ELISA diluent solution were performed. The wells were washed five times with 300 μL of the washing solution. […] The mix was allowed to incubated 60 min at room temperature.

[6] = target: T2, cynomolgus Tyro3 ECD, His-Strep tagged; assay: sandwich ELISA, Strep-tagged cynomolgus Tyro3 ECD captured on StrepMAB plate, IgG 3-fold from 3 µg/mL, anti-human IgG1-HRP
T2 construct: also called cyno TYRO3 ECD 8hisstrep
T2 extracellular domain: T1 sequence with V67A, I191V, A309G, R376H
Procedure: [The procedure below names another species; the source lists this species under the same test.] as §2

[7] = target: T1, recombinant His-Strep tagged human …; assay: BLI (Octet K2), IgG on AHC tips, hTyro3 ECD analyte, 1:1 global fit; KD Error 1,47E-09
Procedure: as §1, with “All measurements were corrected for baseline drift using the double reference substraction, that is to say by subtracting a control sensor without ligand exposed to each concentration of the extra cellular domain of human Tyro3 protein and a reference well with ligand submitted to running buffer only.” left out

[8] = target: T1, recombinant His-Strep tagged human …; assay: BLI (Octet K2), IgG on AHC tips, hTyro3 ECD analyte, 1:1 global fit; kon Error 1,05E+03
Procedure: as §1, with “All measurements were corrected for baseline drift using the double reference substraction, that is to say by subtracting a control sensor without ligand exposed to each concentration of the extra cellular domain of human Tyro3 protein and a reference well with ligand submitted to running buffer only.” left out

[9] = target: T1, recombinant His-Strep tagged human …; assay: BLI (Octet K2), IgG on AHC tips, hTyro3 ECD analyte, 1:1 global fit; kdis(1/s); kdis Error 9,54E-05
Procedure: as §1, with “All measurements were corrected for baseline drift using the double reference substraction, that is to say by subtracting a control sensor without ligand exposed to each concentration of the extra cellular domain of human Tyro3 protein and a reference well with ligand submitted to running buffer only.” left out

[10] = target: T1, recombinant His-Strep tagged human …; assay: BLI (Octet K2), IgG on AHC tips, hTyro3 ECD analyte, 1:1 global fit; KD Error 9,30E-10
Procedure: as §1, with “All measurements were corrected for baseline drift using the double reference substraction, that is to say by subtracting a control sensor without ligand exposed to each concentration of the extra cellular domain of human Tyro3 protein and a reference well with ligand submitted to running buffer only.” left out

[11] = target: T1, recombinant His-Strep tagged human …; assay: BLI (Octet K2), IgG on AHC tips, hTyro3 ECD analyte, 1:1 global fit; kon Error 7,98E+02
Procedure: as §1, with “All measurements were corrected for baseline drift using the double reference substraction, that is to say by subtracting a control sensor without ligand exposed to each concentration of the extra cellular domain of human Tyro3 protein and a reference well with ligand submitted to running buffer only.” left out

[12] = target: T1, recombinant His-Strep tagged human …; assay: BLI (Octet K2), IgG on AHC tips, hTyro3 ECD analyte, 1:1 global fit; kdis(1/s); kdis Error 4,43E-05
Procedure: as §1, with “All measurements were corrected for baseline drift using the double reference substraction, that is to say by subtracting a control sensor without ligand exposed to each concentration of the extra cellular domain of human Tyro3 protein and a reference well with ligand submitted to running buffer only.” left out

kobs [1]: 0.00321 s⁻¹
Kd [2]: 73.5 nM
kon [3]: 29000 M⁻¹ s⁻¹
koff [4]: 0.00213 s⁻¹
EC50 (read off the curve) [5]: ~0.03 µg/mL
EC50 (read off the curve) [6]: ~0.01 µg/mL
B1: IgG2710 (antibody, V domains shown)
VH: EVQLVQSGADVKKPGASLTISCQASGYTFTDYWISWVRQKPGKGLEWMGVINKYASWTRYGPSFQGHVTISADRSTATAYLQWRSLEASDTAMYYCVRSGGLTSGGTIPEYYQHWGPGTLVTVSS
VL: SYELTQPPSVSVSPGQTARITCSGDALPKKYAYWYQQKSGQAPVLVIYEDSKRPSGIPERFSGSSSGTMATLTISGAQVEDEADYYCYSQNPQGNYFVFGGGTKLTVL
notes: also called IGX2710

kobs [1]: 0.0342 s⁻¹
Kd [7]: 101 nM
kon [8]: 97300 M⁻¹ s⁻¹
koff [9]: 0.00987 s⁻¹
EC50 (read off the curve) [5]: ~0.02 µg/mL
EC50 (read off the curve) [6]: ~0.02 µg/mL
B2: IgG2413 (antibody, V domains shown)
VH: EVQLVQSGADVKKPGASLTISCQASGYTFTDYWISWVRQKPGKGLEWMGRIHTYQSSTRYGPSFQGHVTISADRSTATAYLQWRSLEASDTAMYYCVRHHSTTTANPYSSWGPGTLVTVSS
VL: B1 VL with S51D, P54L, Q90T, N91E, P92I, Q93N, F97A
notes: also called IGX2413

kobs [1]: 0.0102 s⁻¹
Kd [10]: 70.2 nM
kon [11]: 76800 M⁻¹ s⁻¹
koff [12]: 0.00539 s⁻¹
EC50 (read off the curve) [5]: ~0.02 µg/mL
binding result [6]: binds
B3: IgG2415 (antibody, V domains shown)
VH: B1 VH with V50Q, N52R, K53G, Y54P, W57A, R59H, S99H, G100Q, G101Q, L102Q
VL: B1 VL with S51K, P54I, Q90T, N91S, P92T, Q93G, F97M
notes: also called IGX2415
